The values that follow are results of earlier work, collected in paper PMC3082522.

What is called pKd is the Kd on a negative log10 scale, so that one unit is a factor of ten.

pKd: −log10 of the molar value.

This data set has as its target filamentous actin (Oryctolagus cuniculus) (UniProt P68135).

Regarding espin (from UniProt Q63618), the negative-log Kd (pKd) is 6.66.
